# Target: T1, hCD137L-mFc (human CD137L extracellular domain and mouse IgG-Fc fusion protein) (human, UniProt P41273 50-254)
# T1 construct: human CD137 ligand (4-1BBL), extracellular domain; a silent g to c change at base 405 destroys an AgeI site without any amino acid changed; also called hL; hL-mFc; source: COS-7, transfected, purified (rProtein A Sepharose)
# Experiment: ELISA; purified hCD137L-mFc coated at 1 µg/ml; expression supernatants of human or mouse CD137-hFc fragments added; goat anti-human IgG-HRP; positive if P/N>2.1
# Conditions: one partner purified
# T1 sequence (P41273 50-254): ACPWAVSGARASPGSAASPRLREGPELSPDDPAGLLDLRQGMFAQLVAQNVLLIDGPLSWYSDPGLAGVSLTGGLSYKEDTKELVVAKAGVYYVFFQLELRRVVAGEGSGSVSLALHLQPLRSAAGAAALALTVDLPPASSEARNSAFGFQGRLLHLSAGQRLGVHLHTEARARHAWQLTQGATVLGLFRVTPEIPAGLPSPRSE
binder,measurement,value
"mouse CD137 extracellular domain with hFc tail (mE-hFc) (Fc fusion, UniProt P20334 24-185, looked up, signal peptide in the construct; mouse CD137 (4-1BB), entire extracellular region with its own leader (1-23 aa), CRDI-IV and the hinge-like region (STP), residues 1-185; Runs as a dimer on SDS-PAGE without 2-ME; also called mE-Fc; mCD137-hFc; source: COS-7, transfected (DEAE dextran); expression supernatant, and purified (rProtein A Sepharose); not shown: Fc (human IgG1 hinge-CH2-CH3), …) VQNSCDNCQPGTFCRKYNPVCKSCPPSTFSSIGGQPNCNICRVCAGYFRFKKFCSSTHNAECECIEGFHCLGPQCTRCEKDCRPGQELTKQGCKTCSLGTFNDQNGTGVCRPWTNCSLDGRSVLKTGTTEKDVVCGPPVVSFSPSTTISVTPEGGPGGHSLQ",binding relative to that of human CD137,~30%
